The supplement of paper PMC9170038

System: K4 kissing-loop RNA reporter
Test: apparent KD of K4 kissing-loop reporter; higher = weaker reporter binding
Conditions: Eterna round: R107
Protocol: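 RNA-MaP round R107: designed RNA switches with theophylline, tryptophan, arginine or FMN aptamers are transcribed on-chip within common flanks. They are titrated with a labelled K4 kissing-loop RNA reporter in RNA-MaP buffer (100 mM Tris pH 7.5, 80 mM KCl, 4 mM MgCl2), without ligand or with the indicated ligand. Median apparent KD per design.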

[1] = input ligand: theophylline 20 uM
[2] = input ligand: tryptophan 2.4 mM
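Note: bound reporter read as fluorescence of individual clusters on recovered sequencing chips by microscopy, with normalized cluster intensities fitted with a binding model.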

Sequence	apparent KD of K4 kissing-loop reporter (input ligand: FMN 200 uM)	apparent KD of K4 kissing-loop reporter (input ligand: arginine 13.2 mM)	apparent KD of K4 kissing-loop reporter (input ligand: none)	apparent KD of K4 kissing-loop reporter [1]	apparent KD of K4 kissing-loop reporter [2]
AAAAUUGCGGUCGAAUUAACUUCUUGCAUACGAGGACCGGUACGGCCGCCACUCGAGUCAAGUGAUGUUUGAUAAUCUAUUAUUA [JR_ExcTryptoA_Sub011]	190 nM	258 nM	279 nM	301 nM	160 nM
AAACAAGAUGCAGGAUAUACGGACCCAGUGAUGUUGGGUAGAAUUGUCCCGGCAAUCCUUGUGGCAGUAGAAGGGCAAUAAAAGA [Gexeraora]	271 nM	134 nM	169 nM	144 nM	151 nM
AAACAUCACUACUUCUUCGUCCUAGAAGACUAGGAUAUCAGGAAACUGAGAAGGAGUCUCUGCAGUGAUGUUGCAGCUAGGACGA [[K]'-[F2]'-[F1]'-[F1]-[F2]-[K1]-[K2]-[F]''_Design2]	191 nM	219 nM	194 nM	249 nM	280 nM
AAACAUCACUGGGAGUGAUGUUCUCAGUGACGAGGACCGGUACGGCCGCCACUCGCGAGAGAACUAGUCUAGUCUUGACUGCAUU [Excl Tryptophan A V14]	277 nM	333 nM	335 nM	418 nM	398 nM
AAACAUCACUGGGAGUGAUGUUCUCAGUGACGAGGACCGGUACGGCCGCCACUCGCGAGAGAUAUAGGUAAGUAAUGACAUCAUU [Excl Tryptophan A V5]	340 nM	282 nM	360 nM	327 nM	392 nM
AAACUUGCAGUGAUGUUGCAAGUAGGUGAUACCAGCAUCGAAAGAUGCCCUUGGCAGCACCAUCUUGUAACAUAGGUAUCACCAA [(H1)-(H2)-(T1)-(T2)-(H)'-(T)'_Design4]	208 nM	208 nM	194 nM	326 nM	225 nM
AAAGUUGAUGAGUUGGGUAUGUGUUCCGAAGGAGCGAGAAUUAUCUCAGGUAGGUCGCGGAACAUGAGUGAUGUUCAUGUAUAAA [KL-XArg-A7 #analogue]	345 nM	436 nM	365 nM	423 nM	340 nM
AAAUAAAGCAGUCACCCAGUGAUGUUGGAAGGAGCGUGCGAAAGCACAGGUAGGUCGCCAAAACCUAAUACUGGCUGCUAAAUAA [#03 K4 Arginine A Exclusion]	242 nM	357 nM	285 nM	307 nM	177 nM
AAAUAAAGCAGUCAUCCAGUGAUGUUGGAAGGAGCGUGCGAAAGCACAGGUAGGUCGCCAAAACCUAAUAAUGGCUGCUAAAUAA [#SwitchBubble 2 #K4Early]	170 nM	211 nM	176 nM	210 nM	141 nM
AAAUAAAGGGCGGCCGCCACUGAUCGCCUCCGCGUGGGUAUGUAGUGAUGUUAUAUGGCCGCCAUCAGGACCGGGCCAAAUAAAA [#10 K4 Tryptophan B Same State]	214 nM	187 nM	340 nM	272 nM	193 nM
AACAGCAAUGCGGCCGCCACUUCGAGGUCAGUGAUGUUGACAGAAUUAAAUAAAGAUCCCAAGAGGAGGACCGGGCAGUGCUGUU [whbob_SS_Tryp_B_t24]	534 nM	417 nM	674 nM	527 nM	416 nM
AACGCUGUGAAUAACACAGCGAAUAAUUCGCGAGGACCGGUACGGCCGCCACUCGCUAACUGCGAGUGAUGUUCGAUAAUAAAAU [Mat - Mod of OpenEnded 3 - D12]	148 nM	116 nM	177 nM	237 nM	113 nM
AACUAUUAAUGAAUUACAUUUUAUUUUUCUCGAGGACCGGUACGGCCGCCACUCGUACUAUAGUGAUGUUAUAGAUAAGUCCUAA [JR_ExcTryptoA_Sub021]	118 nM	184 nM	134 nM	177 nM	71.3 nM
AACUCUCAGGCACCCGAGUGAUGUUCGGGCCGAGGACCGGUACGGCCGCCACUCGGGCCUGAGAGAGGUUAUCAAAGAUAGCCAA [Omei KL Tryp A SS A v1]	247 nM	68.5 nM	114 nM	62.7 nM	248 nM
AACUGCCAAGGAACAUUGUAAGAAGGUGAUACCAGCAUCGAAAGAUGCCCUUGGCAGCACCAACUUGCAGUGAUGUUGCAAGUAA [Design5]	183 nM	156 nM	165 nM	180 nM	159 nM
AACUGGGUUCGUGAUACCAGCUCACACAUGAGUGAUGUUCAUGUAGUGGGCAAAAUGUGGAGCCCUUGGCAGCACUGUGACCACG [XTheo-B2]	81.1 nM	69 nM	77 nM	73.3 nM	78.5 nM
AACUGUCAAGGACAACAUUACUGAGGUGAUACCAGCAUCGAAAGAUGCCCUUGGCAGCACUGACUUGCAGUGAUGUUGCAAGUAA [BrourdMod 8 - Jieux - Exclusion - Theophylline A]	208 nM	162 nM	199 nM	215 nM	189 nM
AACUGUCGAGGACAACAUUACUGAGGUGAUACCAGCAUCGAAAGAUGCCCUUGGCAGCACCAACUUGCAGUGAUGUUGCAAGUAA [BrourdMod 9 - Jieux - Exclusion - Theophylline A]	356 nM	324 nM	343 nM	473 nM	314 nM
AAGCAGUCACGCGAAGCCAUCGAAGAUGGUCGAGGACCGGUACGGCCGCCACUCGGAGUGAUGUUCCGAAGACUGCAAAAUAAAA	326 nM	270 nM	333 nM	314 nM	341 nM
AAGCAGUCACUCGAAACCAUCGAAGAUGGUCGAGGACCGGUACGGCCGCCACUCGGAGUGAUGUUCCGAAGACUGCAAAAUAAAA [#SwitchBubble 10]	313 nM	334 nM	286 nM	277 nM	751 nM
AAGCAGUCACUCGAAUCCAUCGAAGAUGGACGAGGACCGGUACGGCCGCCACUCGGAGUGAUGUUCCGAAGACUGCAAAAUAAAA	306 nM	246 nM	342 nM	345 nM	482 nM

Sequence	apparent KD of K4 kissing-loop reporter (input ligand: FMN 200 uM)	apparent KD of K4 kissing-loop reporter (input ligand: arginine 13.2 mM)	apparent KD of K4 kissing-loop reporter (input ligand: none)	apparent KD of K4 kissing-loop reporter [1]	apparent KD of K4 kissing-loop reporter [2]
AAGCAGUCACUCUAAGCCAUCGAAGAUGGUCGAGGACCGGUACGGCCGCCACUCGGAGUGAUGUUCCGAAGACUGCAAAAUAAAA	410 nM	393 nM	468 nM	459 nM	249 nM
AAGCAGUCAGAGAGUGAUGUUCUCAAAUAACGAGGACCGGUACGGCCGCCACUCGAAGACUGCAAGUCCUACGAAAAGUAGGACA [Omei inspired 9]	78.7 nM	59.5 nM	58.3 nM	136 nM	74.4 nM
AAGCAGUCCCUUGUAGUCAUCGAAGAUGAACGAGGACCGGUACGGCCGCCACUCGGAGUGAUGUUCCGAAGGCUGCAAAAUAAAA [MatMod 19 - Jieux - Exclusion - Tryptophan A]	122 nM	123 nM	135 nM	152 nM	310 nM
AAGGCCACGAGAAGGAGCGUGUUGUGGAGUGAUGUUCCAUUGUAGACCUAAGGUCUGCGAGCACAGGUAGGUCGCUCGUGGUCAA [whbob_SS_Arginine_B_2t150]	108 nM	116 nM	107 nM	110 nM	117 nM
AAGGUAAGUGCAUACAAAGUGAUGUUUUGUCGAGGACCGGUACGGCCGCCACUCGCCCAGUUAAGUGACCGACGUCAACGAAUAA [theeternabot_exclusion_KL_Trp_A_21]	606 nM	552 nM	582 nM	502 nM	498 nM
AAGUAAUUAAUAAUUUAUAUAAGUUAAACAGAGGAUAUGCAUUAUUGCAGAAGGCUGAAUGCAGUGAUGUUGCAAUGAUUAUUUA [JR_SSFMNA_Sub001]	18.9 nM	84.7 nM	58.3 nM	116 nM	60.8 nM
AAGUGAUGUUGUAGUGAUGUUGUGAUGUUGCAGGAUAUAUAGUGAUGUAGAAGGGUAAGUACUUAUUUUUUUUUUGAGUUAUGUU [crrczrmullin]	85.5 nM	33 nM	62.8 nM	45.9 nM	65.4 nM
AAGUGAUGUUGUAGUGAUGUUGUGAUGUUGCAGGAUAUAUAGUGAUGUAGAAGGGUAUGUGCAGUUUUAUUUUUUGAGUGUUGAU [ttytmullin]	72.1 nM	31 nM	54.8 nM	42.2 nM	58.1 nM
AAGUGAUGUUGUAGUGAUGUUGUGAUGUUGCAGGAUAUAUAGUGAUGUAGAAGGGUAUGUUCAGUUUUUUUUUUUGAGUGUUGAU [szxmullin]	84.3 nM	35.3 nM	62.8 nM	47.6 nM	66.5 nM
AAGUGUGUGGCGGCCGCCACUAGAAUCCAGUGAUGUUGGAGUUAUCAAAUAAAUGAUAAUCAACAUAGGACCGGGCCAUAUAGAA [Same State - Tryptophan B (Freestyle 4)]	690 nM	430 nM	626 nM	523 nM	469 nM
AAUAAAAUCACGGCCGCCACUGAUUAGCAUAUUAGGAGUGAUGUUUCUAUGACUAUAUAAUUGAACAGGACCGGGUGAAUAUUUA [#20 K4 Tryptophan B Exclusion]	424 nM	294 nM	417 nM	314 nM	400 nM
AAUAAGGUCGCCGAUACCAGCGCAGGCAGAGCAAAGCUCUGCCAGGUAGUGAUGUUACCGCGCCCUUGGCAGCGGUGGCACGACC [Omei KL Theo B SS C v2]	523 nM	357 nM	516 nM	459 nM	579 nM
AAUAAUGAUGUUUAGGAUUUCCGAAUGGAAGGAGCGUGCGAAAGCACAGGUAGGUCGCCAGUGAUGUUGGGACCUGAGCAUCAAA [#SwitchBubble 6 #K4Late]	681 nM	514 nM	703 nM	807 nM	629 nM
AAUAGAUCAUUAUAGUGAUAAAUGCCUGAUACCAGUGAGAGAUGGCACCCUUGGCAGCAGAGAUGAGUGAUGUUCAGACUGUAAA [theeternabot_sameState_KL_Theo_A_11]	114 nM	118 nM	104 nM	123 nM	91 nM
AAUAUAGUGAUGUUAUAUAAGAAGGAGUUACGAGGACCGGUACGGCCGCCACUCGAAACGAGUGAGGGUUUGGGAGAUUGGGCCC [SSTryptA.J]	493 nM	310 nM	451 nM	322 nM	384 nM
AAUAUAGUGAUGUUAUAUAAGGAAAGAAGGCGAGGACCGGUACGGCCGCCACUCGAAAGGUGAGAAGGUGGCGAAGAAGAAAGAA [ExTryptoA.B]	312 nM	280 nM	331 nM	433 nM	377 nM
AAUGUACAAGUGAUGUUUGUACUUUCCGAAGGAGCGUCUAAUAAGACAGGUAGGUCGCGGAUUCUCUAAAUUAUCAGGUCAUUAA [JR_ExcArginiA_Sub018]	91.8 nM	85.4 nM	94.3 nM	85.6 nM	87.4 nM
AAUGUACAGGGAAGGAGCGUCGUCCAGUGAUGUUGGAGUUAAAUACCAGUGAUGUUGGUUAGACAGGUAGGUCGCCCUAAAGUGC [Exclusion Arginine B Gf 3]	104 nM	80.2 nM	92 nM	95 nM	88 nM
AAUUAAUACAGAAGGAGCGUGAAAUUAUCUAUUUUUUUUUUAGCUAGUGAUGUUAGCAUUUCACAGGUAGGUCGCUGUAUAUUUA [JR_SSArginiB_Sub009]	148 nM	142 nM	166 nM	149 nM	138 nM
AAUUUAUAUUUAUUCUUUAAAUGUUCAGAAGGAGCGUGAAUUAUCACAGGUAGGUCGCUGGGCUAGUGAUGUUGGCUAUAUACUA [whbob_Ex_Arginine_A_2t125]	150 nM	186 nM	162 nM	196 nM	124 nM
AAUUUAUUAACUGAUACCAGACUUUAGCGCGUUUAUAAGUCAAGUGAUGUUUGACUAAUUGUCCCUUGGCAGCAGUAUUUAUUAA [JR_SSTheophyB_Sub021]	233 nM	210 nM	216 nM	157 nM	197 nM
